The values below come from paper PMC3113405 (Nature structural & molecular biology, 2010).

For experiment [1], the target named is T1, Cog2 with an N-terminal 7×His tag (S. cerevisiae, UniProt P53271 1-262).
T1 sequence (looked up): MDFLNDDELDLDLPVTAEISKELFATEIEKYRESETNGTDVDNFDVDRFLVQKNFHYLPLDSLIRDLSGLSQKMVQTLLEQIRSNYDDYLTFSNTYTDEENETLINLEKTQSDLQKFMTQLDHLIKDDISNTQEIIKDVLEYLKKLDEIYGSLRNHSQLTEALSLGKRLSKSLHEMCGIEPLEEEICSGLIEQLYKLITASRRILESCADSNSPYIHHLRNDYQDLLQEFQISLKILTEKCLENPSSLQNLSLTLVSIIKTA
The experiment is described as follows: negative-stain single-particle electron microscopy with GFP labelling.

For the next experiment, the target named is T2, Cog8 (S. cerevisiae, UniProt Q04632 1-607).
T2 sequence (looked up): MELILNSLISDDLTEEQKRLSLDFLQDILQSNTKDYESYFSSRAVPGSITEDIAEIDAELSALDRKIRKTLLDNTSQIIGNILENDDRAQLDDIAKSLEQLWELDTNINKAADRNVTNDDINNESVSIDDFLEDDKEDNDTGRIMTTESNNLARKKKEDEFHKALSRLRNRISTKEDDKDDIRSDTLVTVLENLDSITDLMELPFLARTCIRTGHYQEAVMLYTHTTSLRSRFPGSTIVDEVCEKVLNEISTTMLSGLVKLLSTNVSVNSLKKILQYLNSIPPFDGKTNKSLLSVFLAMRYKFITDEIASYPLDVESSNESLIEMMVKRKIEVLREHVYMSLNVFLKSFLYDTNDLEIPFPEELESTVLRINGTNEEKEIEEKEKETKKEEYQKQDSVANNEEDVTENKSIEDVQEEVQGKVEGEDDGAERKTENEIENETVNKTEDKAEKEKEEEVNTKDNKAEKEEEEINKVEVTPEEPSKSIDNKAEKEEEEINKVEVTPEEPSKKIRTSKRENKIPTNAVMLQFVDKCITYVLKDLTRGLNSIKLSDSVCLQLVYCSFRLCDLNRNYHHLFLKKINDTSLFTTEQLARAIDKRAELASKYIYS
The experiment is described as follows: negative-stain single-particle electron microscopy.

B1: Cog3 (natural protein, S. cerevisiae, UniProt P40094 1-801, looked up)
chain: MARSRKNSLVRDIASHPTIPESQTIVGLLDDSYLFDKLKKLSLAVENSDSLQRTDVSEGCSEVNGSEATTSADVKKTNKYLYYTTYLDQLNIKIDEYKVVLDQTRQVNDQLDSSIKKFRKISQDTGAFIEETKTIYEKQSKLSNLTESIPKALHYFEVLDPIMRRLNHATSPAIVKKSSFTTMLATIDESLRFLDENSDLKDAAAYRIKFKQCLIRACELISHFLTNLLKQTNQEILDKTKNKNSLTGLPSTTRDAFLYSKFYTIADTFKIQVSEIVKRSNEKAYNKYHDELNSILYECFNHYFQTRLRLLTPVIWSHIDEIVVKDKDQGLVKFIQDGKVYFQQLCADEYKLFVEFFPEKECRFKINQWFLQLCEPLYDSIRVRVLKETDICTLCDSVTLFAPYYEFEEGSEEYVKQFTDIQYDKLFEPIVQKVQARLILRVQIYVQQNILSYRPTRDVFMISNRRRKSKTSLQGGNEDATTSDDNPDPLLESYLSSFKNRSILPISPNDADDKSIDSEESTDKISQLQTYYPPLLKTLALLSKIYEMINSVVFDDLAHHVVHDCIVSLRNAYDMVIKSSAGKSDFNNLDISLAYLKNLLMLRDSIQNFNIQYTVNETYLDFSGVEGFFKSLKENGRNVLKKTKSSSILTLARELVPKVVNNMVDARTELISELRNVIKDFTESTSLELIDDTLDINSDEDLLSKNVKLRENIKARLPRIYEQILNYIDDQEIVTNLLDAVQELITQSYSKYYETITELAENGKFAKDQVADVMYLDVFTDFFAKEVADLLRNGDIDTITK
On to B1, for which the stoichiometry N (as a rule, a count of units in the complex or per binding partner) in experiment [1] came to 1.

B2: Cog1 (natural protein, S. cerevisiae, UniProt P53079 1-417, looked up)
chain: MDEVLPLFRDSHIPQIKDYQLELQNDLTKTNEAFQKNLLKNYNKILSLTDSVNDLSLNLKNVDQDFKSLCFNDEKFQLNKLTPLPYQTTTHISPPRDEEKVSIPSQNILVISNWTISINNFCNRIVTSTTPSRIFDELLLNFHELSLIPVPSKFEALVKDKCCRLQKFLVDSMKTLNLTLLQWVKLYNLLNTEFSSKWDDDLLSIFNESLFETLFNDNVQALLISSANSKDHQYHSNQQYKDAIVVDFVNSSTFRDHLIRRTVKEINTHLDTLSTLRAKLKEPETLHKLDIFHDNDTNLNDGTVSPLDDDALKQYIDTAVFYSKGLTNDTTLQIYQTVQPTIEILQNLELYKCPQETLTDLRNKLITQLQEFKTQISSRLPSPLENSTSVVDDFITSYNNHNLLQLVIDQITQLRQQ
In the case of B2, the “stoichiometry N” value in experiment [1] was 1. Besides, in the experiment with Cog8, the binding result is reported as “binds”.

B3: Cog4 (natural protein, S. cerevisiae, UniProt Q06096 1-861, looked up)
chain: MEGQKSNASWESSIIEGQLSKNLARYTLLLDKLSTLSQIDKLSEVIANDYAKQSKQLNAFVQQSQSSLNKESRKLELQRTNLTTTLTQFHETVATISSSNARAKAIHDDIETVDQERALVNKTLQFVKDVRTLKNNISLAHSALETKDYLVAATAINEIRSLPDKKLIVSEFAKKVVPSSEIPEEPAILIKNWCKELTSLFQEQFMEATRTQDIKELTLMFKMFPMIGQDVLGLDLYSKYVCDIIADESRKIMSNSMENSTKFQGFFSQVLLHLFKIVSTIINDHSKVIATCYGKKHMVHVMEKVEKEADLQASLILDIFMETRKIERTIHDINEWEHSQKNEDVNIDSNQSDIETDGETEKSSIISIHDLALLIMEFSQILQNWSMYSRFYSVKWNEFSDLHPHVLQPPPPIADGKFALKLKQDKVFDEFQVFVLNHLQRSFRNSISLEELPSLNDLITAVPLNDHDNISYPVTSVLDDLILLVRKNLISVVNTGQFKLLASFLNELVKFFQNRFLVKFMQNKFKLLQSKLASNVSLKRYIPKGEEQSATSRSVSPPANKFSPLSRFTFRGAAASALTNIQSNLQAVVAEDEDSILALHHYLIYLNTLYLSKVYVHRLLSIEILEDDSQRILRDNFPFDNDAAQLQNLIINSEKLVLEQTDKLSKWAVKYLFQNILQNRVRNLLGTVFVNSASSNSSTSNQKNVSRDYSAGSNQKNYITSIEDFEDLSQINSFNSKWNQLIIPYKNILHNEAYAELLSVIVDYIVTTLEQRIWTLEFNELGVTKLDRELSLFIGNMCGLNYNLREKFLKLTQIVLLLGLDDDNFDLTTGDIKDDFNGTFDWVINSQERIKARNMKIDRTQ
As to B3, the “stoichiometry N” value in experiment [1] stood at 1.
